B1: Protein BMH2 (Saccharomyces cerevisiae), P34730 (parent)
chain: MSQTREDSVYLAKLAEQAERYEEMVENMKAVASSGQELSVEERNLLSVAYKNVIGARRASWRIVSSIEQKEESKEKSEHQVELIRSYRSKIETELTKISDDILSVLDSHLIPSATTGESKVFYYKMKGDYHRYLAEFSSGDAREKATNSSLEAYKTASEIATTELPPTHPIRLGLALNFSVFYYEIQNSPDKACHLAKQAFDDAIAELDTLSEESYKDSTLIMQLLRDNLTLWTSDISESGQEDQQQQQQQQQQQQQQQQQAPAEQTQGEPTK

Variants of: B1
Conditions: with rad53_yeast RAD53, P22216
rad53_yeast RAD53, P22216, sequence (P22216 whole entry): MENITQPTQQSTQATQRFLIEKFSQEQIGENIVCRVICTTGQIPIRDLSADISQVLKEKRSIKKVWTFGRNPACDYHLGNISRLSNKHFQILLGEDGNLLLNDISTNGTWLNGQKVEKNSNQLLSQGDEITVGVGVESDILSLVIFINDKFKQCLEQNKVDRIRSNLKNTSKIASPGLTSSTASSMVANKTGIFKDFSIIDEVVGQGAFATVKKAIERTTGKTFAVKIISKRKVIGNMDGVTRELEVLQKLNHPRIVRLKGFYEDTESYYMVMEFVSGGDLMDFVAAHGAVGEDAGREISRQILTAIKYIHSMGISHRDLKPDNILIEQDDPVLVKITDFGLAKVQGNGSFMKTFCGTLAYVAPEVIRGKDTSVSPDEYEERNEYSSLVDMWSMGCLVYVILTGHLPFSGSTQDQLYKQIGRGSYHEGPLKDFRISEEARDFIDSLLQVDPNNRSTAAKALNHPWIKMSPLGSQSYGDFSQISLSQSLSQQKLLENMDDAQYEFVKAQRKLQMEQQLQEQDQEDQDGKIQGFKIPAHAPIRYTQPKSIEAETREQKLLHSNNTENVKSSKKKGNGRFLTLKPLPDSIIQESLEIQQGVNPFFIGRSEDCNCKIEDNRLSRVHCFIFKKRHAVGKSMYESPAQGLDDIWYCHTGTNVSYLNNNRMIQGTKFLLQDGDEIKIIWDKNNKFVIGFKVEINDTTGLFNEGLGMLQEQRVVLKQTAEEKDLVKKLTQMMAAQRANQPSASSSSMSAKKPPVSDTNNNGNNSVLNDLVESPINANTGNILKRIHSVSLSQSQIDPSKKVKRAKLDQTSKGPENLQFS

| Variant | effect of a mutation on the interaction |
| --- | --- |
| K51R | decreasing interaction strength |
| K51L | decreasing interaction strength |

The remaining lines, values ahead:

| effect of a mutation on the interaction | Variant |
| --- | --- |
| disrupting interaction strength | L225Q |
| disrupting interaction strength | E185D |
